One may read the Kd as the concentration at which binding is half-saturated. Read a low Kd as a tighter complex.

For this series, the target named is NbMTA (Nicotiana benthamiana) (UniProt A0A1J6JV69). Description: BLI. Conditions: Octet RED 96, Super Streptavidin sensors, 100 nM biotinylated ssRNA loaded, NbMTA (50 nM stated; serial dilutions), equilibration in 0.01 M saline, PBS …. For orientation: In BLI a coated tip is dipped into the sample, and binding shifts an interference pattern.
Turning to “GGGAAAAAUAAAUCCAAAAGAAUUCAAGCCUUGAAGUUUCGCCAUGCUCGUGACAAAAGGGCUGGUUUUGAAAUUGACAACAAUGAUGACACAAUAGAGGAAUUCUUUGGAUCUGCAUACAGGAAAAAGGGAAAAGGUAAAGGUACCACUGUUGGUAUGGGCAAGUCAAGCAGAAGGUUUGUUAA [PVY NIa peak 2-1 probe]”, the Kd was greater than 30 µM. The result for “UGCAGUUCGUUCAUCACCAAGCUACGACGUCACUUGCAAAGGAUCUCAAGUUGAAGGGGACUUGGAAGAAGUCAUUAGUGGCCAAAGACUUGAUCAUAGCAGGCGCUGUUGCAAUUGGUGGAAUAGGACUCAUAUAUAGUUGGUUCACACAAUCAGUUGAGACUGUGUCUCACCAA [PVY 6K2 peak 2-1 probe]” reads greater than 30 µM; that for “UCUGGGACACAUACUGUGCCGAGAAUCAAGGCUAUCACGUCCAAAAUGAGAAUGCCCAAAAGCAAGGGAGCAACCGUGCUAAACUUAGAACACUUGCUUGAGUAUGCUCCACAACAAAUUGAUAUUUCAAAUACUCGGGCAACUCAAUCACA [PVY CP peak 3 probe]”, 3.1 µM.

(Values after article PMC12902261.)
